Results from patent US10647775B2.

target: recombinant, biotinylated, Human 4-1BB/TNFRSF9/CD137-Fc (human) (UniProt Q07011); experiment: phage ELISA, CD137-Fc against control IgG Fc
Sequence (Q07011 24-186 limits assumed): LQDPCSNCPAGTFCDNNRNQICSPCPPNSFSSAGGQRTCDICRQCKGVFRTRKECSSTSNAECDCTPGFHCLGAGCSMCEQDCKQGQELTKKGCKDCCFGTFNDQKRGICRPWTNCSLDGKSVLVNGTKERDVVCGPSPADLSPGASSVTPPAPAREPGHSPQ

Row | ELISA ratio (target to background) | Binder
1 | 5.27 | bb10 (designed binder) MGSWAEFKQRLAAIKTRLEALGGSEAELAAFLGEIWAFEMELAAYKGKGNPEVEALGREAAAIRMELQAYRHN

target: IgG Fc (control); experiment: phage ELISA of rescued clones on control IgG Fc

Row | ELISA absorbance (average) | Binder
2 | 0.067 | bb10 (designed binder) MGSWAEFKQRLAAIKTRLEALGGSEAELAAFLGEIWAFEMELAAYKGKGNPEVEALGREAAAIRMELQAYRHN

target: recombinant, biotinylated, Human 4-1BB/TNFRSF9/CD137-Fc (human) (UniProt Q07011); experiment: phage ELISA of rescued clones

Row | ELISA absorbance (average) | Binder
3 | 0.353 | bb10 (designed binder) MGSWAEFKQRLAAIKTRLEALGGSEAELAAFLGEIWAFEMELAAYKGKGNPEVEALGREAAAIRMELQAYRHN

target: TIM3-Fc (Homo sapiens (Human)) (UniProt Q8TDQ0); experiment: phage ELISA, target-Fc against non-specific control (IgG1-Fc)

Row | ELISA ratio (target to background) | Binder
4 | 5.79 | DBDpp of SEQ ID NO: 45 (designed binder) MGSWVVFKVDLATIKYILEALGGSEAELAEFEGEIAGFEYSLQFYKGKGNPEVEALRKEAAAIRDELQAYRHN

target: PD-L1-Fc (human) (UniProt Q9NZQ7); experiment: as above
Sequence (Q9NZQ7 19-239 limits assumed): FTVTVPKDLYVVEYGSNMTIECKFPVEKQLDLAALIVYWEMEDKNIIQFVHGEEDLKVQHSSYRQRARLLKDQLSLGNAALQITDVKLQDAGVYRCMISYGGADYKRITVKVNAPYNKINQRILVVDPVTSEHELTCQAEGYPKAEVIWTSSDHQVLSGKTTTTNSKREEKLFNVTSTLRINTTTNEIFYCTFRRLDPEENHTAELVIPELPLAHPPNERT

Row | ELISA ratio (target to background) | Binder
5 | 6.01 | DBDpp of SEQ ID NO: 41 (designed binder) MGSWFEFQDRLTAINERLSALGGSEAELAAFEKEIAAFESELQAYKGKGNPEVETLRSDAAFIRRFLQAYRHN
6 | 8.68 | DBDpp of SEQ ID NO: 38 (designed binder) MGSWTEFQSRLDAIHSRLRALGGSEAELAAFEKEIAAFESELQAYKGKGNPEVELLRDDAAFIRHFLQAYRHN
7 | 6.34 | DBDpp of SEQ ID NO: 40 (designed binder) MGSWYEFQNRLHAIHERLNALGGSEAELAAFEKEIAAFESELQAYKGKGNPEVELLRDDAAFIRHFLQAYRHN
8 | 4.88 | DBDpp of SEQ ID NO: 42 (designed binder) MGSWYEFESRLDAIHERLHALGGSEAELAAFEKEIAAFESELQAYKGKGNPEVENLRGDAAFIRHFLQAYRHN
9 | 7.41 | DBDpp of SEQ ID NO: 39 (designed binder) MGSWQEFDDRLNAIKARLQALGGSEAELAAFEKEIAAFESELQAYKGKGNPEVEDLRDDAAFIRRFLQAYRHN
10 | 2.98 | DBDpp of SEQ ID NO: 43 (designed binder) MGSWYEFNHRLDAISKRLNALGGSEAELAAFEKEIAAFESELQAYKGKGNPEVEELRGDAAFIRHFLQAYRHN
11 | 2.76 | DBDpp of SEQ ID NO: 44 (designed binder) MGSWFEFENRLHAIVHRLGALGGSEAELAAFEKEIAAFESELQAYKGKGNPEVETLRADAAFIRHYLQAYRHN

target: CD47-Fc (Homo sapiens (Human)) (UniProt Q08722); experiment: as above
Sequence (Q08722 19-139 limits assumed): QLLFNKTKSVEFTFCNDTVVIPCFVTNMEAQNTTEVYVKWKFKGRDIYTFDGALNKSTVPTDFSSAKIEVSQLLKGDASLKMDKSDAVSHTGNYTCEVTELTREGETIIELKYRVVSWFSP

Row | ELISA ratio (target to background) | Binder
12 | 14.1 | DBDpp of SEQ ID NO: 20 (designed binder) MGSWYEFDLRLHAIYDRLVALGGSEAELAAFEKEIAAFESELQAYKGKGNPEVEILRDNAAYIRQMLQAYRHN
13 | 11.7 | DBDpp of SEQ ID NO: 22 (designed binder) MGSWAEFDHRLHAIRERLHALGGSEAELAAFEKEIAAFESELQAYKGKGNPEVEILRGNAAYIRALLQAYRHN
14 | 4.58 | DBDpp of SEQ ID NO: 24 (designed binder) MGSWTEFYSRLEAIWVRLQALGGSEAELAMFEDRIAHFEWFLQQYKGKGNPEVEALHEEAIAIRKELAAYRHN
15 | 12.5 | DBDpp of SEQ ID NO: 21 (designed binder) MGSWTEFTYRLSAIEWRLWALGGSEAELAWFEQKIAFFEDFLQYYKGKGNPEVEALKHEAGAILNELMAYRHN
16 | 8.23 | DBDpp of SEQ ID NO: 23 (designed binder) MGSWTEFVGRLAAIEFRLWALGGSEAELAWFEAHIAFFEDYLQWYKGKGNPEVEALREEAGAIMEELKAYRHN

target: PD1-Fc (Homo sapiens (Human)) (UniProt Q15116); experiment: as above
Sequence (Q15116 25-167 limits assumed): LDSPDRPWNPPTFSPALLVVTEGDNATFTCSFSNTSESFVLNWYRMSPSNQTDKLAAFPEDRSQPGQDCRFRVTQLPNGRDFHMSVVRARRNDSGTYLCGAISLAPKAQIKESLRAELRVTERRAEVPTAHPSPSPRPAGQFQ

Row | ELISA ratio (target to background) | Binder
17 | 3.29 | DBDpp of SEQ ID NO: 48 (designed binder) MGSWYAFKDYLADIKGWLEALGGSEAELAFFEIFIARFELELQAYKGKGNPEVEALRKEAAAIRDELQAYRHN
18 | 17.1 | DBDpp of SEQ ID NO: 46 (designed binder) MGSWTIFKEWLAFIKTDLEALGGSEAELAFFEGWIASFEMELQKYKGKGNPEVEALRKEAAAIRDELQAYRHN
19 | 8.13 | DBDpp of SEQ ID NO: 47 (designed binder) MGSWVMFKWLLADIKSHLEALGGSEAELAFFEGFIAAFETHLQVYKGKGNPEVEALRKEAAAIRDELQAYRHN

target: KIR-Fc; experiment: as above

Row | ELISA ratio (target to background) | Binder
20 | 4.17 | DBDpp of SEQ ID NO: 37 (designed binder) MGSWLWFKIFLAEIKYFLEALGGSEAELAAFDFEIHAFHVELFAYKGKGNPEVEVLREVAAEIRWDLQAYRHN
21 | 4.24 | DBDpp of SEQ ID NO: 36 (designed binder) MGSWYEFYNRLYAIEIRLYALGGSEAELAAFEKEIAAFESELQAYKGKGNPEVERLRVRAAKIRVILQAYRHN
22 | 8.4 | DBDpp of SEQ ID NO: 35 (designed binder) MGSWSEFYNRLDAIESRLLALGGSEAELALFEIQIARFEKVLQAYKGKGNPEVEALRGEARAIFAELYAYRHN

target: recombinant, biotinylated, Human 4-1BB/TNFRSF9/CD137-Fc (human) (UniProt Q07011); experiment: as above

Row | ELISA ratio (target to background) | Binder
23 | 11.9 | DBDpp of SEQ ID NO: 16 (designed binder) MGSWFEFNHRLWAINERLYALGGSEAELAAFEKEIAAFESELQAYKGKGNPEVERLRSMAAFIRYKLQAYRHN
24 | 12 | DBDpp of SEQ ID NO: 15 (designed binder) MGSWYEFSMRLWAIDQRLYALGGSEAELAAFEKEIAAFESELQAYKGKGNPEVEALRAKAAYIRWKLQAYRHN
25 | 13 | DBDpp of SEQ ID NO: 14 (designed binder) MGSWYEFRHRLWAIDQRLYALGGSEAELAAFEKEIAAFESELQAYKGKGNPEVEGLREAAAFIRAKLQAYRHN
26 | 7.26 | DBDpp of SEQ ID NO: 18 (designed binder) MGSWYEFHYRLHAIDQRLYALGGSEAELAAFEKEIAAFESELQAYKGKGNPEVEELRIKAAFIRDRLQAYRHN
27 | 16.1 | DBDpp of SEQ ID NO: 13 (designed binder) MGSWVEFANRLWAIDQRLFALGGSEAELAAFEKEIAAFESELQAYKGKGNPEVEHLRDQAAFIRHKLQAYRHN
28 | 7.71 | DBDpp of SEQ ID NO: 17 (designed binder) MGSWYEFGHRLWAIDQRLYALGGSEAELAAFEKEIAAFESELQAYKGKGNPEVEYLRETAAHIRTRLQAYRHN
29 | 20.6 | DBDpp of SEQ ID NO: 12 (designed binder) MGSWVEFGHRLWAIDQRLYALGGSEAELAAFEKEIAAFESELQAYKGKGNPEVEKLRQRAAFIRFRLQAYRHN

target: DR5-Fc (Homo sapiens (Human)) (UniProt O14763); experiment: as above
Sequence (O14763 56-182 limits assumed): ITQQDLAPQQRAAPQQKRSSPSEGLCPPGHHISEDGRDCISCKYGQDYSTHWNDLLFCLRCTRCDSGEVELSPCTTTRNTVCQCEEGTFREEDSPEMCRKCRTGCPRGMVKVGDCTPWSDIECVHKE

Row | ELISA ratio (target to background) | Binder
30 | 12.1 | DBDpp of SEQ ID NO: 28 (designed binder) MGSWVYFKEHLAWIKTELEALGGSEAELAHFEHSIADFEMSLQFYKGKGNPEVEALRKEAAAIRDELQAYRHN
31 | 10.7 | DBDpp of SEQ ID NO: 32 (designed binder) MGSWIYFKEHLAYIKKELEALGGSEAELAHFESAIAVFESTLQYYKGKGNPEVEALRKEAAAIRDELQAYRHN
32 | 10.3 | DBDpp of SEQ ID NO: 33 (designed binder) MGSWTYFKEHLAEIKYMLEALGGSEAELAHFEVAIADFEKMLQYYKGKGNPEVEALRKEAAAIRDELQAYRHN
33 | 13 | DBDpp of SEQ ID NO: 26 (designed binder) MGSWNYFKDHLAWIKNSLEALGGSEAELAHFETAIASFERQLQEYKGKGNPEVEALRKEAAAIRDELQAYRHN
34 | 11.4 | DBDpp of SEQ ID NO: 30 (designed binder) MGSWHYFKDHLAEIKGLLEALGGSEAELAHFEMAIADFEHNLQYYKGKGNPEVEALRKEAAAIRDELQAYRHN
35 | 11.8 | DBDpp of SEQ ID NO: 29 (designed binder) MGSWFYFKQHLAWIKSYLEALGGSEAELAHFERAIAAFEQHLQMYKGKGNPEVEALRKEAAAIRDELQAYRHN
36 | 9.75 | DBDpp of SEQ ID NO: 34 (designed binder) MGSWWLFKDHLAEIKTALEALGGSEAELAHFEMAIAAFEKQLQYYKGKGNPEVEALRKEAAAIRDELQAYRHN
37 | 10.8 | DBDpp of SEQ ID NO: 31 (designed binder) MGSWHYFKGHLAEIKNHLEALGGSEAELAHFERAIAAFERSLQWYKGKGNPEVEALRKEAAAIRDELQAYRHN
38 | 12.3 | DBDpp of SEQ ID NO: 27 (designed binder) MGSWLYFKEHLAHIKAWLEALGGSEAELAHFELAIADFEYHLQEYKGKGNPEVEALRKEAAAIRDELQAYRHN

target: CTLA4-Fc (Homo sapiens (Human)) (UniProt P16410); experiment: as above
Sequence (P16410 37-162 limits assumed): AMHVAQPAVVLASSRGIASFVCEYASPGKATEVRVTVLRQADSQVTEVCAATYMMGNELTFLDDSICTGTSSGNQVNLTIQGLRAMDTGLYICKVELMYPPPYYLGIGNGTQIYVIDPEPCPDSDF

Row | ELISA ratio (target to background) | Binder
39 | 2.95 | DBDpp of SEQ ID NO: 25 (designed binder) MGSWHEFHDRLQAIHERLYALGGSEAELAAFEKEIAAFESELQAYKGKGNPEVESLRIAAAHIRQVLQAYRHN
